From paper PMC2688778 (Structure (London, England : 1993), 2009)

Key:
Test in all cases: fluorescence anisotropy
[1] = molecular target: T1, RecE564 H652A (Escherichia coli K12, UniProt P15032 564-866, H652A)
T1 sequence: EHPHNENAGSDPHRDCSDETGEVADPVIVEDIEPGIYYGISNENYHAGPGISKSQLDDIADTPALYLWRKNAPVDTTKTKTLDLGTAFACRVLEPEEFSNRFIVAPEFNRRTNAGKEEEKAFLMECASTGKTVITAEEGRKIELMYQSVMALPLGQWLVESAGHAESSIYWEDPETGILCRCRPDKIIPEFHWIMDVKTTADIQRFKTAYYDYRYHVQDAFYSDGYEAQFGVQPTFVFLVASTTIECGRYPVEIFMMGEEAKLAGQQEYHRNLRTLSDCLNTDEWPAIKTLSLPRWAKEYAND

[2] = molecular target: T2, RecE564 Q781A (Escherichia coli K12, UniProt P15032 564-866, Q781A)
T2 sequence: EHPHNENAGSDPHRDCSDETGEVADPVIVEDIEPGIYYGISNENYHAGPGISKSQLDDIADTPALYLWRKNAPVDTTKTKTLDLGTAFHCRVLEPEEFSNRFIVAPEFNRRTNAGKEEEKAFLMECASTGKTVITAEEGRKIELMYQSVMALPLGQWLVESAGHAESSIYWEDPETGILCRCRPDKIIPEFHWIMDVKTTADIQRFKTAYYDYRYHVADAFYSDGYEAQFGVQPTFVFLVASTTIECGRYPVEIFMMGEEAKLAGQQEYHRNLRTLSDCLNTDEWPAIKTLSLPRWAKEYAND

[3] = molecular target: T3, RecE564 Y778A (Escherichia coli K12, UniProt P15032 564-866, Y778A)
T3 sequence: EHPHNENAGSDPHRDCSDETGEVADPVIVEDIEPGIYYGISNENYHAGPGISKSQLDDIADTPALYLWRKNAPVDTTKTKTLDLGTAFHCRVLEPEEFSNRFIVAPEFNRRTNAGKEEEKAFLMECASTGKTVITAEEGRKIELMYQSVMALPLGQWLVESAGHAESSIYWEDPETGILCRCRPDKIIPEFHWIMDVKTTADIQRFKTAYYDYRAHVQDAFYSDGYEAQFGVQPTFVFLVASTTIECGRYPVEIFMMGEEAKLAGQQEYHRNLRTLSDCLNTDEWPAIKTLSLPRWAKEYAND

[4] = molecular target: T4, RecE564 WT (Escherichia coli K12, UniProt P15032 564-866)
T4 sequence: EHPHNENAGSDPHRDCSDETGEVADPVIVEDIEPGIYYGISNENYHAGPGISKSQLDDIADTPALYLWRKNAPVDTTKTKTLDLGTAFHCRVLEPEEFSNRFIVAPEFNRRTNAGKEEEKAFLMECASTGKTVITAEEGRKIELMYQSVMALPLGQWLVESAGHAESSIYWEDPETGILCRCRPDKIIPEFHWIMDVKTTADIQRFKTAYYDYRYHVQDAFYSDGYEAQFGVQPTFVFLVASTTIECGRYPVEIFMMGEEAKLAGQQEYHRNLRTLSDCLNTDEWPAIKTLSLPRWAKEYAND

[5] = molecular target: T5, RecE564 Y785A (Escherichia coli K12, UniProt P15032 564-866, Y785A)
T5 sequence: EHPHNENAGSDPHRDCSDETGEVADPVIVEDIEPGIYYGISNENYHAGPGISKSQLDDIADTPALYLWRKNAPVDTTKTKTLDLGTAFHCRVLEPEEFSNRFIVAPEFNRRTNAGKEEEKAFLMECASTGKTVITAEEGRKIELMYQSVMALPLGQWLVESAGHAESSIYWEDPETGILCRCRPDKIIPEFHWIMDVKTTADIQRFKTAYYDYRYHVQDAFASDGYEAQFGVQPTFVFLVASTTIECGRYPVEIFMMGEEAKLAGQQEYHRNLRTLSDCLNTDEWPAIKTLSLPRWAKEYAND

[6] = molecular target: T6, RecE564 R746A (Escherichia coli K12, UniProt P15032 564-866, R746A)
T6 sequence: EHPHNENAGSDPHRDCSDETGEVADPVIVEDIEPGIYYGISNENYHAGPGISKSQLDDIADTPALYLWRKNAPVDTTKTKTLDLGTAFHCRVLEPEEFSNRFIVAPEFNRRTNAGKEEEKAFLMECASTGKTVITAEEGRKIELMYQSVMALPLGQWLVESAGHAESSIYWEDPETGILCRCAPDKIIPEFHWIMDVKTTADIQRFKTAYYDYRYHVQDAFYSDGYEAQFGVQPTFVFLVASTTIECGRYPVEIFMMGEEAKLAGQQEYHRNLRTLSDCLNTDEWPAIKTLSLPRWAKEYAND

B1: F25 (dsDNA)
DNA 1: TAGAGCTTAATTGCTGAATCTGGTG
DNA 2: CACCAGATTCAGCAATTAAGCTCTA
Kd [1]: 130 ± 10 nM
Kd [2]: 70 ± 20 nM
Kd [3]: 130 ± 20 nM
Kd [4]: 70 ± 2 nM
Kd [5]: 98 ± 9 nM
Kd [6]: 90 ± 10 nM
